77 sequences from the supplement of paper PMC7877785 can be followed below.

This data set in a line: self-splicing fitness, log relative to wild type (ln ratio); higher = more splicing; Tetrahymena group I intron in knt gene, E. coli kanamycin selection, DiMSum; sequences stand for … in CUCUCU…GGAGGGAAAAGUUAUCAGGCAUGCACCUGGUAGCUAGUCUUUAAACCAAUAGAUUGCAUCGGUUUAAAAGGCAAGACCGUCAAAUUGCGGGAAAGGGGUCAACAGCCGUUCAGUACCAAGUCUCAGGGGAAACUUUGAGAUGGCCUUGCAAAGGGUAUGGUAAUAAGCUGACGGACAUGGUCCUAACCACGCAGCCAAGUCCUAAGUCAACAGAUCUUCUGUUGAUAUGGAUGCAGUUCACAGACUAAAUGUCGGUCGGGGAAGAUGUAUUCUUCUCAUAAGAUAUAGUCGGACCUCUCCUUAAUGGGAGCUAGCGGAUGAAGUGAUGCAACACUGGAGCCGCUGGGAACUAAUUUGUAUGCGAAAGUAUAUUGAUUAGUUUUGGAGUACUCGUGGUCG
An outline of the steps: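 Library with all eight P1ex-region intron nucleotides randomised, intron inside the knt kanamycin-resistance gene on pET-22b(+), in E. coli BL21(DE3). Cells grew overnight at 37°C or 30°C on LB agar with or without 25 μg/mL kanamycin (plus 100 μg/mL carbenicillin, 50 μM IPTG, 0.2% rhamnose), in six replicate transformations. Pooled colonies were amplicon-sequenced on Illumina HiSeq 2500. DiMSum fitness is the error-weighted combination of wild-type-normalised replicate fold changes, kanamycin versus none.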

± gives the uncertainty stated by the source.

Consider GACCAGCAAUAUUACGUAAG, for which the “self-splicing fitness (ln)” value runs as follows: (30 °C) -1.55 ± 0.052; (37 °C) -0.817 ± 0.076. For UCGAAGCAAUAUUACGGUAG, in that order: -1.4 ± 0.1 and -1.61 ± 0.11. For UACAAGCAAUAUUACGCGCG, in that order: -0.759 ± 0.088 and 0.0647 ± 0.1.

Consider AGUUAGCAAUAUUACGGGAC, for which the “self-splicing fitness (ln)” value (30 °C) is -3.33 ± 0.26 and the “self-splicing fitness (ln)” value (37 °C) was -0.241 ± 0.12. As to GACAAGCAAUAUUACGGCUU, the “self-splicing fitness (ln)” value was -0.995 ± 0.068 (30 °C) and -0.505 ± 0.1 (37 °C). For UCAAAGCAAUAUUACGCCUA, in that order: -2.71 ± 0.2 and -0.722 ± 0.11. Consider ACCGAGCAAUAUUACGGGGA, for which the “self-splicing fitness (ln)” value is -1.87 ± 0.1 (30 °C) and -1.65 ± 0.1 (37 °C). For AGCAAGCAAUAUUACGGAGG, the “self-splicing fitness (ln)” value (30 °C) is -4.63 ± 0.46 and the “self-splicing fitness (ln)” value (37 °C) was -2.28 ± 0.33. Turning to UUGUAGCAAUAUUACGAGUA, the “self-splicing fitness (ln)” value (30 °C) is -2.13 ± 0.31 and the “self-splicing fitness (ln)” value (37 °C) was -1.22 ± 0.29. Turning to CUUUAGCAAUAUUACGUACG, the “self-splicing fitness (ln)” value runs as follows: (30 °C) -0.271 ± 0.098; (37 °C) 0.109 ± 0.12. Regarding AAGGAGCAAUAUUACGUGCG, the “self-splicing fitness (ln)” value runs as follows: (30 °C) -2.36 ± 0.19; (37 °C) -2.09 ± 0.23. Regarding GGAAAGCAAUAUUACGCGCU, the “self-splicing fitness (ln)” value by setting is: (30 °C) -3.27 ± 0.38; (37 °C) -1.37 ± 0.26. For the sequence CGCCAGCAAUAUUACGGAGC, the “self-splicing fitness (ln)” value runs as follows: (30 °C) -3.06 ± 0.24; (37 °C) -2.82 ± 0.48.

On to GAGCAGCAAUAUUACGAUCC, for which the “self-splicing fitness (ln)” value (30 °C) was -2.45 ± 0.19 and the “self-splicing fitness (ln)” value (37 °C) is -0.494 ± 0.17.

As to CUAAAGCAAUAUUACGAAGG, the “self-splicing fitness (ln)” value runs as follows: (30 °C) -1.03 ± 0.095; (37 °C) -0.0689 ± 0.14.

On to GUAGAGCAAUAUUACGGGCG, for which the “self-splicing fitness (ln)” value is -1.68 ± 0.12 (30 °C) and -1.19 ± 0.15 (37 °C). For GCAAAGCAAUAUUACGACAU, in that order: -0.736 ± 0.012 and -0.158 ± 0.032. On the same counts, the results for GUUCAGCAAUAUUACGCCCU are -0.106 ± 0.16 and 0.232 ± 0.19.

GUAAAGCAAUAUUACGGAAU: the “self-splicing fitness (ln)” value by setting is: (30 °C) -0.906 ± 0.099; (37 °C) -0.779 ± 0.15. Consider GCUGAGCAAUAUUACGUAUU, for which the “self-splicing fitness (ln)” value is -4.1 ± 0.28 (30 °C) and -2.3 ± 0.22 (37 °C).

Turning to GGACAGCAAUAUUACGCACC, the “self-splicing fitness (ln)” value (30 °C) is -2.25 ± 0.25 and the “self-splicing fitness (ln)” value (37 °C) was -1.8 ± 0.38. For the sequence CUUAAGCAAUAUUACGCAUC, the “self-splicing fitness (ln)” value (37 °C) is -0.617 ± 0.29.

Consider GUCAAGCAAUAUUACGUUAA, for which the “self-splicing fitness (ln)” value was -2.02 ± 0.12 (30 °C) and -1.74 ± 0.1 (37 °C). For CGGCAGCAAUAUUACGAUGG, in that order: -0.549 ± 0.083 and -0.741 ± 0.093. As to UCAAAGCAAUAUUACGGACC, the “self-splicing fitness (ln)” value (37 °C) is -2.54 ± 0.32. In the case of GGGGAGCAAUAUUACGCGAG, the “self-splicing fitness (ln)” value is -1.54 ± 0.43 (30 °C) and -0.692 ± 0.24 (37 °C).

As for UCAGAGCAAUAUUACGCACA, the “self-splicing fitness (ln)” value is -1.74 ± 0.29 (30 °C) and 0.554 ± 0.43 (37 °C). For AGUAAGCAAUAUUACGGCCU, in that order: 0.0223 ± 0.17 and -0.034 ± 0.26. For ACUGAGCAAUAUUACGAUCG, the “self-splicing fitness (ln)” value was -1.65 ± 0.15 (30 °C) and -1.99 ± 0.21 (37 °C). For GACCAGCAAUAUUACGUAUC, in that order: -0.803 ± 0.1 and -0.659 ± 0.11.

AUGGAGCAAUAUUACGCAGA: the “self-splicing fitness (ln)” value (30 °C) is -2.19 ± 0.32. As to UAGUAGCAAUAUUACGCCUG, the “self-splicing fitness (ln)” value (30 °C) is -0.198 ± 0.12 and the “self-splicing fitness (ln)” value (37 °C) was -0.437 ± 0.13. On the same counts, the results for AUAAAGCAAUAUUACGGAAA are -1.11 ± 0.11 and -1.12 ± 0.18. For UACGAGCAAUAUUACGAGAU, in that order: -3.99 ± 0.46 and -2.99 ± 0.38.

Turning to UCUGAGCAAUAUUACGUACG, the “self-splicing fitness (ln)” value (37 °C) was -2.34 ± 0.35. As to UUCCAGCAAUAUUACGAGUG, the “self-splicing fitness (ln)” value runs as follows: (30 °C) -0.354 ± 0.059; (37 °C) -0.52 ± 0.069. On the same counts, the results for CACAAGCAAUAUUACGUAGG are -1.23 ± 0.056 and -0.693 ± 0.082. On the same counts, the results for UCAUAGCAAUAUUACGCUAU are -2.88 ± 0.39 and -2.08 ± 0.47. Turning to UACAAGCAAUAUUACGUGGC, the “self-splicing fitness (ln)” value (30 °C) is -3 ± 0.14 and the “self-splicing fitness (ln)” value (37 °C) was -1.94 ± 0.22.

With GCUUAGCAAUAUUACGGCUA, the “self-splicing fitness (ln)” value is -0.299 ± 0.24 (30 °C) and -1.61 ± 0.27 (37 °C). On the same counts, the results for ACGAAGCAAUAUUACGCGAG are -1.48 ± 0.12 and -0.723 ± 0.11. For the sequence CCUGAGCAAUAUUACGAGGA, the “self-splicing fitness (ln)” value is, setting by setting: (30 °C) -3.04 ± 0.45; (37 °C) -1.57 ± 0.18. Take AGUUAGCAAUAUUACGACAA: the “self-splicing fitness (ln)” value was -0.124 ± 0.18 (30 °C) and -0.562 ± 0.18 (37 °C). For GUUUAGCAAUAUUACGUAUA, in that order: -2.12 ± 0.16 and -1.41 ± 0.22.

Take GACGAGCAAUAUUACGGCCC: the “self-splicing fitness (ln)” value was -0.0683 ± 0.45 (30 °C) and -0.45 ± 0.4 (37 °C).

Turning to UCGUAGCAAUAUUACGGGGU, the “self-splicing fitness (ln)” value runs as follows: (30 °C) -3.35 ± 0.23; (37 °C) -2.35 ± 0.25.

UUGAAGCAAUAUUACGUUCU: the “self-splicing fitness (ln)” value was 0.25 ± 0.084 (30 °C) and -0.378 ± 0.1 (37 °C). For CUACAGCAAUAUUACGUUAC, the “self-splicing fitness (ln)” value was -4.4 ± 0.26 (30 °C) and -3.72 ± 0.33 (37 °C).

In the case of AGGAAGCAAUAUUACGCCGA, the “self-splicing fitness (ln)” value was -1.95 ± 0.17 (30 °C) and -0.0948 ± 0.12 (37 °C). On the same counts, the results for CUGUAGCAAUAUUACGGUAU are -2.41 ± 0.15 and -2.08 ± 0.18.

In the case of CCAUAGCAAUAUUACGGAAA, the “self-splicing fitness (ln)” value runs as follows: (30 °C) -2.94 ± 0.41; (37 °C) -2.36 ± 0.34. In the case of UCGGAGCAAUAUUACGCGCA, the “self-splicing fitness (ln)” value (30 °C) is -0.975 ± 0.23. With CAUAAGCAAUAUUACGCUGA, the “self-splicing fitness (ln)” value is -2.49 ± 0.21 (30 °C) and -2.62 ± 0.28 (37 °C). For UUAAAGCAAUAUUACGAGAU, in that order: -3.41 ± 0.21 and -2.19 ± 0.21. On to GACUAGCAAUAUUACGAAGA, for which the “self-splicing fitness (ln)” value is -1.87 ± 0.13 (30 °C) and -0.416 ± 0.13 (37 °C). For CUUCAGCAAUAUUACGAGCC, the “self-splicing fitness (ln)” value (30 °C) was -2.29 ± 0.21 and the “self-splicing fitness (ln)” value (37 °C) is -1.59 ± 0.3.

As to GCGCAGCAAUAUUACGCUGG, the “self-splicing fitness (ln)” value was -2.1 ± 0.1 (30 °C) and -2.13 ± 0.16 (37 °C). For the sequence CAGAAGCAAUAUUACGGUGU, the “self-splicing fitness (ln)” value was -3.05 ± 0.12 (30 °C) and -2.22 ± 0.14 (37 °C). With AUUCAGCAAUAUUACGGUGU, the “self-splicing fitness (ln)” value was -0.571 ± 0.042 (30 °C) and -0.106 ± 0.055 (37 °C).

Turning to UUGGAGCAAUAUUACGACUG, the “self-splicing fitness (ln)” value is -0.79 ± 0.46 (30 °C) and 0.294 ± 0.47 (37 °C). On the same counts, the results for GCUUAGCAAUAUUACGUACU are -0.712 ± 0.1 and -0.0558 ± 0.13. Regarding CAUAAGCAAUAUUACGGGGU, the “self-splicing fitness (ln)” value reads like this: (30 °C) -4.17 ± 0.19; (37 °C) -2.46 ± 0.15.

Take CACGAGCAAUAUUACGCUGA: the “self-splicing fitness (ln)” value was -3.57 ± 0.37 (30 °C) and -2.02 ± 0.3 (37 °C). On to GAGGAGCAAUAUUACGACAU, for which the “self-splicing fitness (ln)” value is, setting by setting: (30 °C) -2.069 ± 0.02; (37 °C) -1.21 ± 0.036. For GGGAAGCAAUAUUACGAUAA, in that order: -1.61 ± 0.11 and -0.785 ± 0.15. For GUGGAGCAAUAUUACGAUGU, in that order: -2.4 ± 0.23 and -0.928 ± 0.29. For the sequence UGAUAGCAAUAUUACGCGUU, the “self-splicing fitness (ln)” value by setting is: (30 °C) -2.9 ± 0.24; (37 °C) -2.54 ± 0.39. For AACGAGCAAUAUUACGUCGU, in that order: -2.5 ± 0.23 and -2.9 ± 0.31. As for GUCCAGCAAUAUUACGGGAU, the “self-splicing fitness (ln)” value (30 °C) is -4.04 ± 0.2 and the “self-splicing fitness (ln)” value (37 °C) is -2.76 ± 0.22.

On to AGUUAGCAAUAUUACGCCAU, for which the “self-splicing fitness (ln)” value reads like this: (30 °C) -3.41 ± 0.21; (37 °C) -1.53 ± 0.14.

As for UUCUAGCAAUAUUACGGGGC, the “self-splicing fitness (ln)” value by setting is: (30 °C) -3.22 ± 0.32; (37 °C) -2.02 ± 0.26. CUGAAGCAAUAUUACGACGU: the “self-splicing fitness (ln)” value is, setting by setting: (30 °C) -2.75 ± 0.12; (37 °C) -1.09 ± 0.1. As to AGCCAGCAAUAUUACGUGCC, the “self-splicing fitness (ln)” value runs as follows: (30 °C) -2.96 ± 0.15; (37 °C) -1.98 ± 0.14. CCGUAGCAAUAUUACGUAUC: under “37 °C”, the “self-splicing fitness (ln)” value was -2.65 ± 0.29. For GGAUAGCAAUAUUACGACUA, the “self-splicing fitness (ln)” value (30 °C) was -1.37 ± 0.42 and the “self-splicing fitness (ln)” value (37 °C) was -1.11 ± 0.28.

Take UGCCAGCAAUAUUACGAGGC: the “self-splicing fitness (ln)” value was -4.02 ± 0.42 (30 °C) and -1.44 ± 0.18 (37 °C). For the sequence AGAGAGCAAUAUUACGCCCA, the “self-splicing fitness (ln)” value (37 °C) is -0.88 ± 0.36.
